This experiment has as its target recombinant CMG2-Fc-Apo (rCMG2-Fc-Apo) protein (human) (UniProt P58335). The experiment is described as follows: non-reducing SDS-PAGE.

Regarding “recombinant CMG2-Fc-Apo (rCMG2-Fc-Apo) protein (from UniProt P58335 34-318) (Fc fusion)”, the stoichiometry N (usually the number of molecules, sites or subunits per partner or assembly) came out at 2.
